Test system: RAW 264.7 cells
Experiment: 125I-HMGB1 cell surface binding to RAW 264.7 cells
Parameters: species or system murine
Details: 4° C., specific binding (FIG. 5A)
Protocol: Purified HMGB1 protein (10 μg) was radiolabeled with 0.2 mCi of carrier-free ^125I (NEN Life Science Products Inc., Boston, Mass.) using Iodo-beads (Pierce, Rockford, Ill.) according to the manufacturer's instructions. ^125I-HMGB1 protein was separated from un-reacted ^125I by gel chromatography columns (P6 Micro Bio-Spin Chromatography Columns, Bio-Rad Laboratories, Hercules, Calif.) previously equilibrated with 300 mM sodium chloride, 17.5 mM sodium citrate, pH 7.0, and 0.1% bovine serum albumin (BSA). The specific activity of the eluted HMGB1 was about 2.8×10^6 cpm/μg protein. Cell surface binding studies were performed as previously described (Yang et al., Am. J. Physiol. 275:C675-C683, 1998). […] The radioactivity in the lysate was then measured using a gamma counter. Specific binding was determined as total binding minus the radioactivity obtained in the presence of an excess amount of unlabeled HMGB1 or A box proteins.
To determine whether the HMGB1 A box acts as an antagonist by displacing HMGB1 binding, ^125I-labeled —HMGB1 was added to macrophage cultures and binding was measured at 4° C. after 2 hours. Binding assays in RAW 264.7 cells were performed as described herein. ^125I-HMGB1 binding was measured in RAW 264.7 cells plated in 24-well dishes for the times indicated in FIG. 5A. […] The specificity of binding was assessed as described in Example 1. […]

B1: HMGB1: Recombinant full length human HMGB1, GST fusion system, SEQ ID NO:18; recombinant rat HMGB1 used in some experiments (protein, listed as Homo sapiens)
chain: MGKGDPKKPTGKMSSYAFFVQTCREEHKKKHPDASVNFSEFSKKCSERWKTMSAKEKGKFEDMAKADKARYEREMKTYIPPKGETKKKFKDPNAPKRLPSAFFLFCSEYRPKIKGEHPGLSIGDVAKKLGEMWNNTAADDKQPYEKKAAKLKEKYEKDIAAYRAKGKPDAAKKGVVKAEKSKKKKEEEEDEEDEEDEEEEEDEEDEEDEEEDDDDE
  125I-HMGB1 binding over time: saturable first order binding kinetics

Reference: patent US20040156851A1, “HMGB1 combination therapies” (Critical Therapeutics, Inc., priority 2002, published 2004)
